Test results published in US20250339569A1 (3B PHARMACEUTICALS, published 2025).
Starred links: 1 amine or outer side, 2 acyl side, 3 side chain; linkers in the order of their positions; H or OH if unused. Positions of bridges follow the written chain, without caps; N, C: chain ends. Non-standard residues stand in square brackets, D forms with d. Primed or numbered codes have the meaning given here. *: point of attachment. af3(ac-asp) = lower case: 3-amino-D-phenylalanine, ring amine acylated with N-acetyl-D-aspartic acid, CC(=O)N[C@H](CC(=O)[*:3])C(=O)Nc1cccc(C[C@@H](N[*:1])C(=O)[*:2])c1; APAc″ = 2-(4-(amino)piperidin-1-yl)acetic acid, NC1CCN(CC(=O)*)CC1; DOTA = O=C(O)CN1CCN(CC(=O)O)CCN(CC(=O)*)CCN(CC(=O)O)CC1; mXylylene = c1cc(C[*:1])cc(C[*:2])c1; βAla = NCCC(=O)O; Sar = CNCC(=O)O

B1: 3BP-3604 (peptide)
peptide: Ac-VY[dC][βAla]WLTWSC-NH2
modifications: linker 3-10 via mXylylene
SMILES: CC(=O)N[C@H](C(=O)N[C@@H](Cc1ccc(O)cc1)C(=O)N[C@@H]1CSCc2cccc(c2)CSC[C@@H](C(N)=O)NC(=O)[C@H](CO)NC(=O)[C@H](Cc2c[nH]c3ccccc23)NC(=O)[C@H]([C@@H](C)O)NC(=O)[C@H](CC(C)C)NC(=O)[C@H](Cc2c[nH]c3ccccc23)NC(=O)CCNC1=O)C(C)C
notes: also called Ac-Val-Tyr-[cys(3mebn)-Bal-Trp-Leu-Thr-Trp-Ser-Cys]-NH2
B2: 3BP-3055 (peptide)
peptide: Ac-VYCEGDWATWQC-NH2
modifications: linker 3-12 via mXylylene
SMILES: CC(=O)N[C@H](C(=O)N[C@@H](Cc1ccc(O)cc1)C(=O)N[C@H]1CSCc2cccc(c2)CSC[C@@H](C(N)=O)NC(=O)[C@H](CCC(N)=O)NC(=O)[C@H](Cc2c[nH]c3ccccc23)NC(=O)[C@H]([C@@H](C)O)NC(=O)[C@H](C)NC(=O)[C@H](Cc2c[nH]c3ccccc23)NC(=O)[C@H](CC(=O)O)NC(=O)CNC(=O)[C@H](CCC(=O)O)NC1=O)C(C)C
B3: 3BP-3309 (peptide)
peptide: Ac-VYCE[Sar]DWL[dA]WQC-NH2
modifications: linker 3-12 via mXylylene
SMILES: CC(=O)N[C@H](C(=O)N[C@@H](Cc1ccc(O)cc1)C(=O)N[C@H]1CSCc2cccc(c2)CSC[C@@H](C(N)=O)NC(=O)[C@H](CCC(N)=O)NC(=O)[C@H](Cc2c[nH]c3ccccc23)NC(=O)[C@@H](C)NC(=O)[C@H](CC(C)C)NC(=O)[C@H](Cc2c[nH]c3ccccc23)NC(=O)[C@H](CC(=O)O)NC(=O)CN(C)C(=O)[C@H](CCC(=O)O)NC1=O)C(C)C
notes: also called Ac-Val-Tyr-[Cys(3MeBn)-Glu-Nmg-Asp-Trp-Leu-ala-Trp-Gln-Cys]-NH2
B4: 3BP-3325 (peptide)
peptide: Ac-CE[Sar]DWLTWQC-NH2
modifications: linker 1-10 via mXylylene
SMILES: CC(=O)N[C@H]1CSCc2cccc(c2)CSC[C@@H](C(N)=O)NC(=O)[C@H](CCC(N)=O)NC(=O)[C@H](Cc2c[nH]c3ccccc23)NC(=O)[C@H]([C@@H](C)O)NC(=O)[C@H](CC(C)C)NC(=O)[C@H](Cc2c[nH]c3ccccc23)NC(=O)[C@H](CC(=O)O)NC(=O)CN(C)C(=O)[C@H](CCC(=O)O)NC1=O
notes: also called Ac-[Cys(3MeBn)-Glu-Nmg-Asp-Trp-Leu-Thr-Trp-Gln-Cys]-NH2
B5: 3BP-2836 (peptide)
peptide: Ac-MVYCEGDWLTWQC-NH2
modifications: linker 4-13 via mXylylene
SMILES: CSCC[C@H](NC(C)=O)C(=O)N[C@H](C(=O)N[C@@H](Cc1ccc(O)cc1)C(=O)N[C@H]1CSCc2cccc(c2)CSC[C@@H](C(N)=O)NC(=O)[C@H](CCC(N)=O)NC(=O)[C@H](Cc2c[nH]c3ccccc23)NC(=O)[C@H]([C@@H](C)O)NC(=O)[C@H](CC(C)C)NC(=O)[C@H](Cc2c[nH]c3ccccc23)NC(=O)[C@H](CC(=O)O)NC(=O)CNC(=O)[C@H](CCC(=O)O)NC1=O)C(C)C
B6: 3BP-3044 (peptide)
peptide: Ac-V[dY]CEGDWLTWQC-NH2
modifications: linker 3-12 via mXylylene
SMILES: CC(=O)N[C@H](C(=O)N[C@H](Cc1ccc(O)cc1)C(=O)N[C@H]1CSCc2cccc(c2)CSC[C@@H](C(N)=O)NC(=O)[C@H](CCC(N)=O)NC(=O)[C@H](Cc2c[nH]c3ccccc23)NC(=O)[C@H]([C@@H](C)O)NC(=O)[C@H](CC(C)C)NC(=O)[C@H](Cc2c[nH]c3ccccc23)NC(=O)[C@H](CC(=O)O)NC(=O)CNC(=O)[C@H](CCC(=O)O)NC1=O)C(C)C

How the values were obtained:
[1] = target: human carbonic anhydrase 9 (CAIX) (human, UniProt Q16790 38-459); experiment: FACS competition on HT-29 cells against tracer 3BP-2776; pIC50 category C = pIC50 6.1-7.0
Method: (§1) CAIX-expressing human HT-29 colorectal cancer cells (DSMZ, RRID: CVCL_0320) were cultured in McCoys's 5A modified medium (Biochrom, #F1015) including 10% fetal calf serum (FCS), 2 mM L-glutamine, 100 U/ml penicillin and 100 μg/mL streptomycin. Cells were detached with Accutase (Biolegend, #423201) and washed in FACS buffer (PBS including 1% FCS). Cells were diluted in FACS buffer to a final concentration of 500.000 cells per ml. 200 μL of the cell suspension were transferred to a u-shaped non-binding 96-well plate (Greiner) and cells were washed in ice-cold FACS buffer.
(§2) When biotinylated compounds were used an additional incubation step with 1 μg/mL APC-Streptavidin (Miltenyi; #130-106-791) in 50 μL FACS buffer for 30 minutes on ice was performed.
(§3) Cells were washed twice with ice-cold FACS buffer and analyzed in an Attune NxT flow cytometer (Thermo Fisher). Median fluorescence intensities (MFI) of the APC/Cy5-channel were calculated by Attune NxT software.

[2] = target: human carbonic anhydrase 9 (CAIX) (human, UniProt Q16790 38-459); experiment: FACS competition on HT-29 cells, competitor tracer 3BP-4149; category B = pIC50 7.1-8.0
Method: as §1, §2, §3

Binder | pIC50 [1] [pic50] | pIC50 [2] [pic50]
B1 | 6.1 to 7 | 
B2 | 6.1 to 7 | 
B3 | 6.1 to 7 | 
B4 | 6.1 to 7 | 
B5 | 6.1 to 7 | 
{DOTA-APAc″}-VYCE[dP]D[af3(ac-asp)]LTWSC-NH2 (linker 3-12 via mXylylene; not fully specified) [3BP-4364] |  | 7.1 to 8
B6 | 6.1 to 7 | 
